Laboratory results from US20260034194A1, “PHARMACEUTICAL COMPOSITIONS AND METHODS OF TREATING PSP” (priority 2022, published 2026).
Residue numbers refer to the chain shown, from its start. Numbers in names are those of the source. Entries after “also recorded” stand apart in the source; their conditions may differ.

B1: MaSxph: Mantella aurantiaca (Golden mantella) saxiphilin, SEQ ID NO: 3 (protein, listed as Mantella aurantiaca)
chain: MALTFQTALYFTIIGLSFVTSSARDVRWCVISDLEQKKCNDLVGSCKVSGITLVCVHRSSTENCMTAIRDEQADAMFLDSGDVYKASMSPYNLKPIIAESYSSHKECLKKRQEALGGANVLGQFVPQCDEKGSYQPQQCYGSTGHCWCVNAIGEEIVGTKTQPGQTQATCERHDQTKCLKDRQKALAKKMIGGFVPQCDEKGNFKPRQCHGSTGYCWCTNANGEKIAATNTPPQQSPPTCERHDLDSCHYAVAVVKKSSIFQFNQLKGKRSCHSGVSKTDGWKAPVSVLVDKNLLSWDRAAKESIEKAVSKFFSDSCIPGATETNLCNQCMGEGGKKCMSSHDEPYYGDHGAFRCLKEDKGDVAFLKNTVLSDTHSEDYELLCPDNTRKPLNKYKECNLGKVPADAVVTRKSGDKIKDINDFLLEAQKKHCQLFSSAHGKDLMFDDSTTQLSLLPPEVDVFFFLGVQWLNTMKTLTADVKPPSKNKVRWCTVNNLEKMKCDDWSAVSGGAIECTEASSPEHCIKQIVKGEADAVTLDVQYMYEALKCGLLPAVEEYHNKDDFGPCKTPGSEIKDFGAKRAVALVKKSNKDINWHNLKGKKSCHTGVGDQAGWIIPVGLISRQIDNCNIDSFFSESCAPGSDTTSNFCKLCIGDPSNPMANTKCSLSDKEAYHGNEGAIRCLVEKGDVAFVHHTAVFENTDGKNPAEWAANLKSEDFEILCLDGSRAPVSNYMTCRLSGVPPRAIVTREESVSDVVRILINQQSLFGRNGFEKDMFQMFSSNKGQNLLFNDGTQCLIEFDRQPRGIMEDYFGKPYYNAVYNTSKCVLPSELTSACTFKHC
B2: RiSxph: Ranitomeya imitator (Mimic poison frog) saxiphilin, SEQ ID NO: 6 (protein)
chain: MRRSSYAASQEMRMTLRVLLCLCLWALSSAAPNTRNVRWCVTSDTEEQKCNDLVTSCHVDEILLICVKKSSTEDCVRAISNGEADAISLDSKDVYKASLDPFNLKPIMTEAYSESEHTPCMRHRQSVLGGKIMKIGAFVPKCDEKGNYVPKQCHGSTGYCWCLNENGEEIEGTRTPPGNPGLTCENKANKPPCLKERQKLLSAKPSPAVFVPECDEKGNYRPQQSHVYSWCVDEYGEEVFGSRSFPGKPPKPCEASGETPCIKERNKVLSAAEPLLGAFVPDCDEKGYFSPLQSHGSTGYSWCVTKNGDEIKGTRTGPGQSPPTCEVPAPVTLHYAVAVVKKSSSFHLDQLKGKRSCHSAVGEAAGWVAPLNVLLKKKLLLWEEPEPKTIEKVASEIFSASCAPGAQEANLCEQCAGQEDKCTRGPGEPYYGDEGAFRCLREDKGDVAFVEDTALTGQYSDNFELLCPDNTRRPLSQYKICNFGRIPRHAVVTRSSGDKMKDITEYLLQAQKKECKLFSSTHGKDLLFEDTTSALIALPSAMDTFLFLGPDLFNGMKTLNGARPPQVNQQIRWCPQSKNEKKKCDDWSSVSGGAIKCTEPSSGLECIKMILKGEAEAVNLDIEHSYIALKCGLLPSVDEYRNKDDLIPCQIPGSEYSEFGSYRIVALVKKTDKDLTWNNLQGKKSCHTRAGDMIGWNIPVYLISKKTKNCDLGSYFSQSCAPGSPIDSNLCKLCIGDPQNPQANTKCSISDKEAYYGHEGAIRCLVEKGDVAFVPHTAIFENTDGKNPALWAKDLKSTDFELLCPDGSRAPVNDYKKCKLSGIANQIAITRPESVKDVVRIIQNQQSLYGRTGSQKDIFQMFSSSYGQNLLFSDRTQCLVEFDRMLDRDIMDDYFGKPFHKHLLRDNDCLPKSALASACSFHH
modifications: Ranitomeya imitator
B3: E540Q: RcSxph STX binding pocket mutant E540Q (protein)
chain: MAPTFQTALFFTIISLSFAAPNAKQVRWCAISDLEQKKCNDLVGSCNVPDITLVCVLRSSTEDCMTAIKDGQADAMFLDSGEVYEASKDPYNLKPIIAEPYSSNRDLQKCLKERQQALAKKMIGHYIPQCDEKGNYQPQQCHGSTGHCWCVNAMGEKISGTNTPPGQTRATCERHELPKCLKERQVALGGDEKVLGRFVPQCDEKGNYEPQQFHGSTGYSWCVNAIGEEIAGTKTPPGKIPATCQKHDLVTTCHYAVAMVKKSSAFQFNQLKGKRSCHSGVSKTDGWKALVTVLVEKKLLSWDGPAKESIQRAMSKFFSVSCIPGATQTNLCKQCKGEEGKNCKNSHDEPYYGNYGAFRCLKEDMGDVAFLRSTALSDEHSEVYELLCPDNTRKPLNKYKECNLGTVPAGTVVTRKISDKTEDINNFLMEAQKRQCKLFSSAHGKDLMFDDSTLQLALLSSEVDAFLYLGVKLFHAMKALTGDAHLPSKNKVRWCTINKLEKMKCDDWSAVSGGAIACTEASCPKGCVKQILKGEADAVKLEVQYMYEALMCGLLPAVQEYHNKDDFGPCKTPGSPYTDFGTLRAVALVKKSNKDINWNNIKGKKSCHTGVGDIAGWVIPVSLIRRQNDNSDIDSFFGESCAPGSDTKSNLCKLCIGDPKNSAANTKCSLSDKEAYYGNQGAFRCLVEKGDVAFVPHTVVFENTDGKNPAVWAKNLKSEDFELLCLDGSRAPVSNYKSCKLSGIPPPAIVTREESISDVVRIVANQQSLYGRKGFEKDMFQLFSSNKGNNLLFNDNTQCLITFDRQPKDIMEDYFGKPYYTTVYGASRSAMSSELISACTIKHC
B4: F784S: RcSxph STX binding pocket mutant F784S (protein)
chain: B3 chain with Q559E, F803S
B5: Q787A: RcSxph STX binding pocket mutant Q787A (protein)
chain: B3 chain with Q559E, Q806A
B6: F784A: RcSxph STX binding pocket mutant F784A (protein)
chain: B3 chain with Q559E, F803A
B7: T563A: RcSxph STX binding pocket mutant T563A (protein)
chain: B3 chain with Q559E, T582A
B8: F784C: RcSxph STX binding pocket mutant F784C (protein)
chain: B3 chain with Q559E, F803C
B9: Y795A: RcSxph STX binding pocket mutant Y795A (protein)
chain: B3 chain with Q559E, Y814A
B10: Y558F: RcSxph STX binding pocket mutant Y558F (protein)
chain: B3 chain with Q559E, Y577F
B11: I782A/Y558A: RcSxph STX binding pocket double mutant I782A/Y558A (protein)
chain: B3 chain with Q559E, Y577A, I801A
B12: F784L: RcSxph STX binding pocket mutant F784L (protein)
chain: B3 chain with Q559E, F803L
B13: I782F: RcSxph STX binding pocket mutant I782F (protein)
chain: B3 chain with Q559E, I801F
B14: F784Y: RcSxph STX binding pocket mutant F784Y (protein)
chain: B3 chain with Q559E, F803Y
B15: Q787E: RcSxph STX binding pocket mutant Q787E (protein)
chain: B3 chain with Q559E, Q806E
B16: K789A: RcSxph STX binding pocket mutant K789A (protein)
chain: B3 chain with Q559E, K808A
B17: D794N: RcSxph STX binding pocket mutant D794N (protein)
chain: B3 chain with Q559E, D813N
B18: D785A: RcSxph STX binding pocket mutant D785A (protein)
chain: B3 chain with Q559E, D804A

Assay type: binding
Settings: FP

Row | Molecule | STX/F-STX affinity compared with RcSxph
1 | B1 | enhanced affinity
2 | B2 | higher affinity for STX than RcSxph; also recorded: binds STX more strongly than RcSxph

Same assay, conditions: FP, 1 nM F-STX, 25° C.; errors S.D.

Row | Molecule | Kd
3 | B3 | 10600 ± 1320 nM
4 | B4 | 3240 ± 508 nM
5 | B5 | 11.3 ± 1.1 nM
6 | B6 | 725 ± 109 nM
7 | B7 | 5.3 ± 0.5 nM
8 | B8 | 1510 ± 346 nM
9 | B9 | 8.4 ± 2.1 nM
10 | B10 | 6.3 ± 2.3 nM
11 | B11 | 1.2 ± 0.2 nM
12 | B12 | 48 ± 6.8 nM
13 | B13 | 16.1 ± 4.1 nM
14 | B14 | 13.8 ± 1 nM
15 | B15 | 6.4 ± 1.6 nM
16 | B16 | 5.1 ± 1.7 nM
17 | B17 | 3230 ± 397 nM
18 | B18 | 19.5 ± 2.5 nM
19 | B1 | 0.4 ± 0.1 nM
20 | B2 | 0.8 ± 0.3 nM

Same assay, conditions: ΔΔG = RT ln(Kd mutant or XSxph/Kd RcSxph); T = 298K; FP with F-STX

Row | Molecule | ΔΔG
21 | B3 | 4.30 kcal/mol
22 | B4 | 3.60 kcal/mol
23 | B5 | 0.25 kcal/mol
24 | B6 | 2.71 kcal/mol
25 | B7 | -0.20 kcal/mol
26 | B8 | 3.15 kcal/mol
27 | B9 | 0.08 kcal/mol
28 | B10 | -0.10 kcal/mol
29 | B11 | -1.07 kcal/mol
30 | B12 | 1.11 kcal/mol
31 | B13 | 0.46 kcal/mol
32 | B14 | 0.37 kcal/mol
33 | B15 | -0.09 kcal/mol
34 | B16 | -0.22 kcal/mol
35 | B17 | 3.60 kcal/mol
36 | B18 | 0.57 kcal/mol
37 | B1 | -1.73 kcal/mol
38 | B2 | -1.32 kcal/mol
